According to US20160053277A1, “Compositions Having Dicamba Decarboxylase Activity and Methods of Use” (PIONEER HI-BRED INTERNATIONAL, INC., priority 2013, published 2016):

What was measured:
[1] = 14C assay with IPTG-induced recombinant E. coli cells: 14CO2 captured from [14C]-carboxyl-labeled dicamba; details: for decarboxylation activity of dicamba: among the 108 sequences tested, recombinant E. coli cells; for Enzymatic Detection level: dicamba decarboxylation activity of the protein of the given SEQ ID NO, High / Low / No; for Dicamba Decarboxylase Activity: induced recombinant E. coli cells, [14C]-carboxyl-labeled dicamba, 14CO2 capture
[2] = Saturation mutagenesis of SEQ ID NO:109: dicamba decarboxylation activity of point mutants (carbon dioxide released); details: decarboxylation activity (carbon dioxide released) of point mutant compared with unmutated backbone protein; backbone SEQ ID NO: 109

B1: 2 (protein, listed as Serratia sp.)
chain: MAKIICLEEHTLDKALVMASMPAALEQAPFLSDWGKTVTDGNLPDRSRPQIEKNDLINIKGADIGRGRLDDMDVAGITMQVLSVGGFPHLISAAEGVDLNRAANDRLADAVNAHPDRFAAFATLPWAQPDSAEKELERAVKELGFKGALLNGRPSTHFLDHPDYDGLLARFNALGVPLYLHPGLPVRSVQQAYYGGFSDEVTARLSMFGWGWHHEAGIHLLRLILSGAFDKYPNLQVISGHWGEMLPFWLQRLDDSLPQAATGLRRTIAQTFKEQVYVTPSGMLTLPHFQFIYALLGAERIIFSVDYPYQTLDGVKAFIQSLPVPEEAKEAIAFRNAERLLGLTS
[1]
  decarboxylation activity of dicamba: showed decarboxylation activity of dicamba
  Enzymatic Detection level: High
  Dicamba Decarboxylase Activity: High
[2]
  Fold Activity: 1.1

B2: 55 (protein, listed as Serratia sp.)
chain: MAKIICLEEHTLDKALVMASMPAALEQAPFLSDWGKTVTDGNLPDRSRPQIEKNDLINIKGADIGRGRLDDMDVAGITMQVLSVGGFPHLISAAEGVDLNRAANDRLADAVNAHPDRFAAFATLPWAQPDSAEKELERAVKELGFKGALLNGRPSTHFLDHPDYDGLLARFNALGVPLYLHPGLPVRSVQQAYYGGFSDEVTARLSMFGWGWHHEAGIHLLRLILSGAFDKYPNLQVISGHWGEMLPFWLQRLDDSLPQAATGLRRTIAQTFKEQVYVTPSGMLTLPHFQFIYALLGAERIIFSVDYPYQTLDGVKAFIQSLPVPEEAKEAIAFRNAERLLGLTS
[1]
  decarboxylation activity of dicamba: showed decarboxylation activity of dicamba
  Enzymatic Detection level: High
  Dicamba Decarboxylase Activity: High
[2]
  Fold Activity: 1.5

B3: 54 (protein, listed as Streptomyces sp.)
chain: MAKIIALEEHFSDPAVAKAGAARAQALSPGFAASYSPASGLPYSPSPEVLENLAEKRLADMDAGGITMQVLSGLGAQTVPADVAPALVAGSNDKAAAAVRAHPDRFAAFAALPTAAPEAAVAELDRSINELGFVGTLIMGRTEGEFLDAPRFEPILARAAALKVPVFLHPGVPPREITDSNYAAGLPTGIGTRLQTAAWGWHQETAVHFLHLVHSGVLDRYPGLQFILGHWGEMIPFYLDRVDEALPQRATGLDRSFHEYFRENVYLAPSGMWSQAQLRFCLETVPLERIVFAVDYPFIGNEGAVPFLEKAELPEADKRKIAHENAERLLGL
[1]
  decarboxylation activity of dicamba: showed decarboxylation activity of dicamba
  Enzymatic Detection level: High
  Dicamba Decarboxylase Activity: High
[2]
  Fold Activity: 1.4

B4: 56 (protein)
chain: MAKIICLEEHYLDSELGRACMPVALEQAPFLGDWGKTVADGHNPDRSRPQIEKNALINAKGADLGSRRLRDMDEAGITLQILSVGGFPQLAPEDEAVTLNTAANDRLAEAVRNHPDRFAAFATLPWAQPKDAENELVRAVEKLGFKGALLNGRPSSCFLDHPDYDSLLSRFNKLNVPLYLHPGLPLKSVQQAYFTGFSAEVNARLSMFGWGWHHEAGIHLLRLMLSGAFDKYPNMQVISGHWGEMLPFWLQRLDDSLPLAATGLSRTLTRTFQEHVYVTPSGMLTLPHFKFIYELMGAERILFSVDYPYQTLDGVKTFIDSLPVNKAEKEAIAFRNAERLLGITA
modifications: Enterobacter aerogenes
[1]
  decarboxylation activity of dicamba: showed decarboxylation activity of dicamba
  Enzymatic Detection level: High
  Dicamba Decarboxylase Activity: High
[2]
  Fold Activity: 1.3

B5: 81 (protein, listed as Verticillium dahliae)
chain: MAASTKPKVVDIHTHMYPPSYIDILTSRTAIPVVRTFPQAADPRLILLDAEQQALDAALQDPTAKPPGRPLTSHYASLDQKIHFMDTHSIDISVVSLANPWLDFIEPKEAAATARSVNDEFEAMCASQPGRLFFFAALPLTAPLPALLEAVRHVAELEHCRGVILGTSGLGSGLDDPELVPVLEAVAAAALTVFLHPHYGLPNDVWGPRASAEYGHVLPLALGFPMETTIAVARMYLAGVFDRVPALRMLLAHSGGTLPFLAGRIESCILHDGQLVAEGKVGAARRTIWDVLREQVYLDAVIYSEIGLKAAIAASGGADRLMFGTDHPFFPPLGTDEQAKKESRINAGGSRPMITGNAMINGHGGLCNHITQSDYQDVVL
[1]
  decarboxylation activity of dicamba: showed decarboxylation activity of dicamba
  Enzymatic Detection level: High
  Dicamba Decarboxylase Activity: High
[2]
  Fold Activity: 1.2

B6: 58 (protein)
chain: MARVIALEEHYATTEFLRGPGTWLASRPGIVEPAGDLGDGRIAAMDQAGVDLAVLSLAAPGVEQLDPDDAVRLARDCNDQLAAAVRRYPDRLAGFATVPTSAPDRAADELERAVRGLGFPGAVINGHSRGRYLDDPFFEPVLARAAELQAPIYLHPTIPPAGVIESSYAGFAEPVTFALATVGWGWHINTATHALRMILGGVFDRHPSLQMIIGHMGEATSFMLPRFDATLKPELTGLNHPVSSYLRENFHYTFANFNDHATYANLVAQVGIERVAFSADYPFGSMVDARAFLDGLPLSDDERAAISHRNAEKLLGL
modifications: Mycobacterium colombiense
[1]
  decarboxylation activity of dicamba: showed decarboxylation activity of dicamba
  Enzymatic Detection level: High
  Dicamba Decarboxylase Activity: High
[2]
  Fold Activity: 1.5

B7: 87 (protein, listed as Novosphingobium sp.)
chain: MASDIATAADLQTGGRQGYLRIATEEAFATRDQIDVYLRMVRDGTADRGMTSLWGFYAQSPSARATQIIERLLDLGEQRLADMDAAGIDKAVLALTSPGVQPLLDMEEARRIAGNANDRLAERCAAHPDRFIGMTAVAPQDPQWSAREILRGATQLGFKGVQINSHTQGRYLDEPFFDPIFRALGDVGQPLYIHPGTPPDSMIGPLLDAGLDGAIYGFGVETGMHLLRLITAGIFDRYPDLQIMVGHMGEALPYWLYRLDYMHQAGIRSQRYERMRPLKRTIAGYFRSNVLVTCSGMAWEPAIQFARQVMGEDRVMYAMDYPYQYEADEVRALDVMDLSPESKRKFFQTNAERWFDL
[1]
  decarboxylation activity of dicamba: showed decarboxylation activity of dicamba
  Enzymatic Detection level: High
  Dicamba Decarboxylase Activity: High
[2]
  Fold Activity: 1.4

B8: 88 (protein, listed as Starkeya novella)
chain: MARKIALEEHFTTPELAGKYVARPTQSDALFADIERRLADFDELRLEMMDRAEIDLMVLSVTTPGVQGVRDTGEAIRLARGANDFLAREVQKRPSRYAGFAHLAMQDAEAAATELERAVRELGFRGALINGQTNGHYLDEDQYAPFWERVQELDVPVYLHPGNMADSPAMFAHRPELGGPIWAWTAETAAHALRLVFGGTFTRFPGAKVILGHMGETLPFLLWRLDSRREFDLGEKLAPDALPSAIIKRNIAVTTSGVCDPAPLVAALQALSDDNVMFSVDYPYEDPQLASKFIETAPIGEETRAKVCHGNAERLLGL
[1]
  decarboxylation activity of dicamba: showed decarboxylation activity of dicamba
  Enzymatic Detection level: High
  Dicamba Decarboxylase Activity: High
[2]
  Fold Activity: 1.3

B9: 57 (protein)
chain: MAKLICVEEHVLDPAVGAATQSLVRAEAPYLPDWGSRVLDGRHVADRSRPHVIAPSESARKALEMGEPRLADMDAASIDMQVLSYGGFPQLLPAAQAIDLNRAANDKLALAAQAHPARFAGFATLPWQAPEAAARELERAVKQLGLKGALINGRPGDTFLDDARYAPILAAFDELKVPLYVHPGLPLPAVQAPYYGGFERELSARLAMFAWGWHNEAGIQVVRMLLAGVFDRHPRLQLISGHWGEMVPFFLQRLEDSIPQEASGLQRPIVQTYREHVYISPSGMFTLPHFQFIHALMGAQRILYSIDYPYQSLDGARAFIERLPISDTDKALIAHRNAERLLHL
modifications: Collimonas fungivorans
[1]
  decarboxylation activity of dicamba: showed decarboxylation activity of dicamba
  Enzymatic Detection level: High
  Dicamba Decarboxylase Activity: High
[2]
  Fold Activity: 2

B10: 89 (protein, listed as Erwinia billingiae)
chain: MATNRRDFLKNATAVMAGSTVFAGSSHFASAAAVEPAAVQPPRRIIALEEHFMLPEFVGYLHETQQNLRNGLVDKVVTPLSDFGKGRLEIMDKNGVDFAVLSLSGPGVQAEPDRVKAVRLARYANDKLATEMQKNPRRYGGFAHLAMQDPLAAANELERCVKQLHMQGGMINGETDGLYLDDRRYDVFWERVEALNVPIYIHPGNPPDYPHMFAGHPEMWGPVWSWAVETCSHALRLIFSGTFDRYPGARVILGHMGETLPIQLWRLDSRYQIANQTFAIKHPPSWYAKKNITITTSGVCNDAALRCALDSMGSENVMFSIDYPFESTEIAVNWLKTANITEQERNAVAWGNATSILRLGA
[1]
  decarboxylation activity of dicamba: showed decarboxylation activity of dicamba
  Enzymatic Detection level: High
  Dicamba Decarboxylase Activity: High
[2]
  Fold Activity: 3.1

B11: 79 (protein)
chain: MATTTTPSTLIATLESHLTPTLAFTSPTTSPTQPALHLIPPTTLTKLRNLGPGRVKDMHMLGHSRQIISHIPVAAPPQICSRFNDAIHAATMTNTAKFSVLAVLPTDGMEAAKELARCVSKYRFVGGVIGLNRGLRINGEGWEELWGLAERLRIPIMFREMWPLAFEIVDYQHHLPYSALGPILTQLHTSHTSSPLPLVRLYLSSVFDHYPSLRLVLAHPGSLPSLVPRIESLINSIPATDKPKRSFLDVWQHNIYLTTADAQDMSSLRALLEQIPVDRVLYASNYPFEERGNELMNELRESEFLTNIEWERVAWVNAETLFNLKEAGTKEARQLTTIPSSRS
modifications: Pyrenophora teres
[1]
  decarboxylation activity of dicamba: showed decarboxylation activity of dicamba
  Enzymatic Detection level: High
  Dicamba Decarboxylase Activity: High
[2]
  Fold Activity: 0.9
